Assay results published in US9289381B2, “Stabilization and storage of biological pharmaceutical compositions” (The University of North Carolina at Charlotte, priority 2009, dated 2016).
Values joined by “and” are separate entries in the source; they are usually repeats but may differ in a detail not shown here. Equal values may be shown once.

Tests used:
[1] = Microcalorimetry (DSC) of HEWL dispersions stored in 80% w/w CDHP or 0.1M NaOAc; assay type: physicochemical; parameters: Thermal transition midpoint temperature of HEWL: unit not given here
Method: The samples were formulated in 2 ml silanized glass vials to reduce protein-surface interactions, covered with cap and septa, wrapped with parafilm to ensure no drying out of the sample, and stored away from sunlight. They were stirred for at least 24 hours until a homogeneous distribution of protein was obtained. […] The 35 silanized vials were exposed to UV light for 24 hours to ensure sterility. Control samples at equivalent concentrations were also prepared in triplicates in 0.1M NaOAc buffer (pH 4). Samples were tested for thermal stability via microcalorimetry and functional activity via the micrococcus lysodeikticus assay at monthly intervals.
A MicroCal VP-DSC microcalorimeter was used to assess thermal structural stability of all samples. Baseline repeatability was established with a minimum of 5 buffer-buffer scans. […] HEWL solutions were tested similarly with no dilution of the samples. Between samples, during the filling period of 15° C. to 25° C., the sample cell of the DSC was flushed with at least 25 ml distilled H2O, then at least 15 ml NaOAc to ensure no sample residue remained behind. Thermal profiles, enthalpy changes, and transition temperatures were obtained with Origin software.
All formulations were diluted to 0.1-0.5 mg/ml for testing. This allows one to observe how well protein thermal stability and structural integrity is maintained following storage and then dilution into a solution of similar composition as the environment of the body.

[2] = Microcalorimetry (DSC) of 1 mg/ml HEWL solutions in 0-40% w/w CDHP or 20% choline chloride in 0.1M NaOAc; assay type: physicochemical
Method: All samples were prepared in triplicate. A MicroCal VP-DSC microcalorimeter was used to assess thermal structural stability of all samples. […] HEWL solutions were tested similarly with no dilution of the samples. Between samples, during the filling period of 15° C. to 25° C., the sample cell of the DSC was flushed with at least 25 ml distilled H2O, then at least 15 ml NaOAc to ensure no sample residue remained behind. Thermal profiles, enthalpy changes, and transition temperatures were obtained with Origin software.

[3] = test system: micrococcus lysodeikticus; experiment: Micrococcus lysodeikticus turbidimetric assay of HEWL enzyme activity; assay type: biochemical; settings: formulated in NaOAc compared with 80% w/w CDHP, 10 and 100 mg/ml, 5 months
[4] = Sedimentation analysis of HEWL dispersions (centrifugation, BCA); assay type: physicochemical; settings: HEWL dispersion in 80% w/w CDHP, 75 minutes at 15000 RPM
Method: The presence of any CDHP crystals was also noted. […] Images were taken using SlideBook.
The second approach to verify these sample compositions was to determine the amount of protein in the dispersed phase after separation of the solid and liquid components by centrifugation. To achieve separation of these components, solutions were centrifuged for 75 minutes at 15000 RPM, about 10% remained in the supernatant. Both the decanted supernatant and the pellet, which was re-suspended in buffer, were analyzed for protein content. It was observed that ˜90% of the formulated protein was contained in the pellet. The remaining about 10% of the formulated protein was found in the supernatant. […] Although the supernatants appeared clear it is possible that there are sub-visible particles of lysozyme in the supernatant that resist sedimentation at this rate.

[5] = 350 mg/ml vs 1 mg/ml, aqueous solvent; cited from earlier work
[6] = stored at 100 mg/ml in Choline dhp, 3 months
[7] = stored at 100 mg/ml in Choline dhp, 4 months
[8] = stored at 100 mg/ml in Choline dhp, 5 months
[9] = 20% w/w Choline Chloride in 0.1M NaOAc

With “HEWL: hen egg white lysozyme (HEWL), a well characterized protein, purchased from Worthington Biochem” the “Enthalpy of unfolding of HEWL” value [1, 6] was 231.1 kJ/mol and 239.63 kJ/mol and 229.7 kJ/mol, the “Thermal transition midpoint temperature of HEWL” value [1, 6] was 346.39 and 346.37 and the “Enthalpy of unfolding of HEWL” value [1, 7] was 189.24 kJ/mol and 190.709 kJ/mol and 208.01 kJ/mol. For the same substance, the “Thermal transition midpoint temperature of HEWL” value [1, 7] was 346.3 and 346.35 and 346.37, the “Enthalpy of unfolding of HEWL” value [1, 8] was 162.76 kJ/mol and 152.3 kJ/mol and 164.43 kJ/mol and the “Thermal transition midpoint temperature of HEWL” value [1, 8] was 346.29 and 346.02 and 346.35. For the same substance, the “Thermal transition midpoint temperature of HEWL” value ([1]; stored at 100 mg/ml in NaOAc, 0 months) was 346.92 and 346.45 and 347.06, the “Thermal transition midpoint temperature of HEWL” value ([1]; stored at 100 mg/ml in NaOAc, 1 month) was 345.92 and 346.17 and 345.84 and the “Thermal transition midpoint temperature of HEWL” value ([1]; stored at 100 mg/ml in NaOAc, 2 months) was 345.78 and 346 and 345.69. The “Thermal transition midpoint temperature of HEWL” value ([1]; stored at 100 mg/ml in NaOAc, 3 months) was 345.79 and 345.9 and 345.66, the “Thermal transition midpoint temperature of HEWL” value ([1]; stored at 100 mg/ml in NaOAc, 4 months) was 345.47 and 345.41 and 345.51 and the “Thermal transition midpoint temperature of HEWL” value ([1]; stored at 100 mg/ml in NaOAc, 5 months) was 345.39 and 345.41. For the same substance, the “Gibbs free energy change at 25 C.” value ([2]; 0% w/w CDHP) was 65.1781 kJ/mol and 60.6525 kJ/mol and 62.88652 kJ/mol, the Tm ([2]; 0% w/w CDHP in 0.1M NaOAc) was 75.18 °C and 75.19 °C and 75.25 °C and the ΔH ([2]; 0% w/w CDHP in 0.1M NaOAc) was 435.215 kJ/mol and 451.035 kJ/mol and 419.304 kJ/mol. For the same substance, the ΔS ([2]; 0% w/w CDHP in 0.1M NaOAc) was 298.62 cal/mol K and 309.47 cal/mol K and 287.65 cal/mol K, the “Gibbs free energy change at 25 C.” value ([2]; 5% w/w CDHP) was 66.60351 kJ/mol and 64.76891 kJ/mol and 61.6304 kJ/mol and the Tm ([2]; 5% w/w CDHP in 0.1M NaOAc) was 76.08 °C and 76.07 °C and 75.4 °C. For the same substance, the ΔH ([2]; 5% w/w CDHP in 0.1M NaOAc) was 420.107 kJ/mol and 454.131 kJ/mol and 447.01 kJ/mol, the ΔS ([2]; 5% w/w CDHP in 0.1M NaOAc) was 287.51 cal/mol K and 310.81 cal/mol K and 306.57 cal/mol K and the “Gibbs free energy change at 25 C.” value ([2]; 10% w/w CDHP) was 62.97941 kJ/mol and 70.85361 kJ/mol and 63.99461 kJ/mol. For the same substance, the Tm ([2]; 10% w/w CDHP in 0.1M NaOAc) was 76.08 °C and 76.10 °C and 77.09 °C, the ΔH ([2]; 10% w/w CDHP in 0.1M NaOAc) was 436.224 kJ/mol and 429.199 kJ/mol and 475.089 kJ/mol and the ΔS ([2]; 10% w/w CDHP in 0.1M NaOAc) was 298.54 cal/mol K and 293.72 cal/mol K and 324.21 cal/mol K. For the same substance, the “Gibbs free energy change at 25 C.” value ([2]; 20% w/w CDHP) was 76.83062 kJ/mol and 72.82361 kJ/mol and 74.28675 kJ/mol, the Tm ([2]; 20% w/w CDHP in 0.1M NaOAc) was 78.82 °C and 78.94 °C and 78.79 °C and the ΔH ([2]; 20% w/w CDHP in 0.1M NaOAc) was 484.47 kJ/mol and 500.105 kJ/mol and 475.089 kJ/mol. The ΔS ([2]; 20% w/w CDHP in 0.1M NaOAc) was 328.98 cal/mol K and 339.48 cal/mol K and 322.63 cal/mol K, the “Gibbs free energy change at 25 C.” value ([2]; 20% w/w Choline Chloride) was 56.0568 kJ/mol and 52.70719 kJ/mol and 53.24316 kJ/mol and the Tm [2, 9] was 72.47 °C and 72.62 °C and 72.36 °C. For the same substance, the ΔH [2, 9] was 386.41 kJ/mol and 405.73 kJ/mol and 383.32 kJ/mol, the ΔS [2, 9] was 267.21 cal/mol K and 280.45 cal/mol K and 265.16 cal/mol K and the “Gibbs free energy change at 25 C.” value ([2]; 30% tw/w CDHP) was 86.676 kJ/mol and 71.5355 kJ/mol and 93.75122 kJ/mol. The Tm ([2]; 30% w/w CDHP in 0.1M NaOAc) was 81.86 °C and 82.00 °C and 81.80 °C, the ΔH ([2]; 30% w/w CDHP in 0.1M NaOAc) was 583.806 kJ/mol and 538.652 kJ/mol and 445.834 kJ/mol and the ΔS ([2]; 30% w/w CDHP in 0.1M NaOAc) was 393.04 cal/mol K and 362.5 cal/mol K and 300.2 cal/mol K. For the same substance, the “Gibbs free energy change at 25 C.” value ([2]; 40% w/w CDHP) was 107.25 kJ/mol and 99.7064 kJ/mol and 100.424 kJ/mol, the Tm ([2]; 40% w/w CDHP in 0.1M NaOAc) was 86.27 °C and 86.39 °C and 86.37 °C and the ΔH ([2]; 40% w/w CDHP in 0.1M NaOAc) was 587.81 kJ/mol and 626.558 kJ/mol and 582.48 kJ/mol. The ΔS ([2]; 40% w/w CDHP in 0.1M NaOAc) was 390.9 cal/mol K and 416.5 cal/mol K and 307.2 cal/mol K, the “enzyme activity over time” value [3] was “degrades faster” and the “formulated protein contained in the pellet” value [4] was roughly 90%. For the same substance, the “formulated protein found in the supernatant” value [4] was “about 10%” and the “decrease of thermal transition midpoint temperature at the higher concentration” value [5] was roughly 5 °C.
